Where no end group is shown, it is not given here.
Biological target: T1, Histone H3 (4-10) K9ac peptide 4-10 (Homo sapiens, UniProt P68431, not fully specified (residue 7))
T1 chain: TKQTARK
Test: ITC

B1: ENL (protein)
chain: MDNQCTVQVRLELGHRAQLRKKPTTEGFTHDWMVFVRGPEQCDIQHFVEKVVFWLHDSFPKPRRVCKEPPYKVEESGYAGFIMPIEVHFKNKEEPRKVCFTYDLFLNLEGNPPVNHLRCEKLTFNNPTTEFRYKLLRAGGVMVMPEGADTVSRPSPDYPMLPTIPLSAFSDPKKTKPSHGSKDANKESSKTSKPHKVTKEHRERPRKDSESKSSSKELEREQAKSSKDTSRKLGEGRLPKEEKAPPPKAAFKEPKMALKETKLESTSPKGGPPPPPPPPPRASSKRPATADSPKPSAKKQKKSSSKGSRSAPGTSPRTSSSSSFSDKKPAKDKSSTRGEKVKAESEPREAKKALEVEESNSEDEASFKSESAQSSPSNSSSSSDSSSDSDFEPSQNHSQGPLRSMVEDLQSEESDEDDSSSGEEAAGKTNPGRDSRLSFSDSESDNSADSSLPSREPPPPQKPPPPNSKVSGRRSPESCSKPEKILKKGTYDKAYTDELVELHRRLMALRERNVLQQIVNLIEETGHFNVTNTTFDFDLFSLDETTVRKLQSCLEAVAT
  Kd: 30.1 µM

Reference: publication PMC5497220 (2017)
